These results are taken from paper PMC12423496.

For the series, the target named is T1, sHdrR-trunc (Hyphomicrobium denitrificans XT) (UniProt D8JT17).
T1 sequence: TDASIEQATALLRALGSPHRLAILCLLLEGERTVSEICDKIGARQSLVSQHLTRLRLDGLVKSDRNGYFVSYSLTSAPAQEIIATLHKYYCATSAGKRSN
As to the kind of experiment: EMSA. As to conditions: 10 mM Tris-HCl, 50 mM KCl, 1 mM DTT, pH 8.0 (1x of 10x buffer), about 7% glycerol; 20 min RT then 30 min at 30 C with 17 nM DNA; 6% native PAGE, 0.25x TBE, 4 C. (Mobility shift assays separate free from complexed probe on a gel.)
On to “CGGCCCTCTGAGAAAAGACGCACACGTCGCGCCAAAAACATATGAACATTCGCATGATGGAATATAACAGCCCTGCCGATCGCACAAGGCTCGCTTTAAACGCGGACGCGTCTTCGCAGCGCACACGCATGCGCTGGACGTCCGATCATGTGAAAATTGGGCTGAAGACTCGCTCTA (double strand) [upstream of lipS1]”, for which the binding entry was “binds”.

Consider “GGGTCACCAAATTCTGCAGGTCTCAATGCGAATGCGAGGCTGCTCCAGCTAGACGAAAAACAAGGAACGTTGCAATAGATAATTCACATATGATAATTTTCATATGTGTTATAGGATGAACGTTATCGCAGCTTCCGGGAGAGATGGCGTGAT (double strand) [soxA-soxY intergenic region]”, for which the binding entry is given as “binds”.

As for “TCGACAGCTTGCGGAAATCCGCAATCGAGATCGAAGCCATCGATCGTATTCGAATAGCACGTTCAGCTTCTGCGGAAGCGAACAACGCAACCGGCGCCAAGAGATAAATCTACATCGATCGTCGCGCCGGATGCGTTCACGTTGCCAAGGAATTCCTCACCGGCGGAGCCGTGGAATT (double strand)”, the binding result was “no binding”. Take “TGCCACCTCCCCGATATGCGTGGCTTTTGTTGTTTTGCCACTTCAGTTCTTGTGTAACTTCCTCTTTAGAACCAGTCAATATTACATTCGCATGTTTGAATATTCCATTTTTCTATATGTTCATCGAATTGGAAAAGTTATTCAAATATATCGCGATCGATTGATCGGCGAAGTC (double strand) [upstream of dsrE3C]”: the binding result was “binds”.
